Test results taken from patent publication US20240101959A1, “USE OF IL-2R-BETA-GAMMA AGONIST PEPTIDES IN CELL MANUFACTURING” (MEDIKINE, INC., priority 2022, published 2024).
Positions of bridges follow the written chain, without caps; N, C: chain ends. No end group written: not given here.

T1: hu-IL-2Rβ subunit (human, UniProt P14784 27-240, limits assumed)
T1 construct: also called human interleukin-2 receptor subunit β; CD122
T1 sequence (looked up): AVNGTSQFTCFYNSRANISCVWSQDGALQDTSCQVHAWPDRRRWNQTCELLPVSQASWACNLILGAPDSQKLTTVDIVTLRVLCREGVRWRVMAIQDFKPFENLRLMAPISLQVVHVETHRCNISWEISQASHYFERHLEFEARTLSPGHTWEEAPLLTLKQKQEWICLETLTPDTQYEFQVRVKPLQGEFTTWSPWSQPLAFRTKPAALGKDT

B1: SEQ ID NO 414 (peptide)
peptide: VASERFYPCWIARLGELCDVE
modifications: disulfide 9-18 (inferred)
B2: SEQ ID NO 103 (peptide)
peptide: WWPCWMAQLGEMCDLEYPYVPG
B3: SEQ ID NO 415 (peptide)
peptide: WYPCWIAKLGEVCDLDQGTTRQ
B4: SEQ ID NO 416 (peptide)
peptide: WYPCWLAHLGELCDLDWKGRND
B5: SEQ ID NO 417 (peptide)
peptide: WYPCWRAQLGELCDLVDLGSHL
modifications: disulfide 4-13 (inferred)
B6: SEQ ID NO 418 (peptide)
peptide: WSPCWMASLGDLCDLEETRQTE
B7: SEQ ID NO 419 (peptide)
peptide: WTPCWIAQLGELCDLEGRHGTV
B8: SEQ ID NO 420 (peptide)
peptide: LPCWIAQLGDLCDLEPEPSPE
B9: SEQ ID NO 421 (peptide)
peptide: FYPCWAAHLGDLCDLEYQEAGP
B10: SEQ ID NO 422 (peptide)
peptide: WLPCWLAPLGDLCDMDMSAVMN
B11: SEQ ID NO 423 (peptide)
peptide: WRPCWMAHLGDLCDLEMANENP
B12: SEQ ID NO 424 (peptide)
peptide: WYPCWLAQLGEVCDLDDGGGVF
B13: SEQ ID NO 104 (peptide)
peptide: QTKLEGWYPCWMAQLGELCDLD
B14: SEQ ID NO 426 (peptide)
peptide: TEMWYPCWMAYQGELCDLDMTY
B15: SEQ ID NO 427 (peptide)
peptide: ARTWWPCWRAKLGELCDLVVPE
B16: SEQ ID NO 428 (peptide)
peptide: HQGFYSCRLARLGELCDLDTGW
B17: SEQ ID NO 429 (peptide)
peptide: VDEFYPCSMAGLGELCDLERQN
B18: SEQ ID NO 430 (peptide)
peptide: AWDWYPCSVAALGEICDLDIQD
B19: SEQ ID NO 431 (peptide)
peptide: RPPWYPCWMARLGEVCDMDIML
B20: SEQ ID NO 432 (peptide)
peptide: SQRWYPCWVAHLGELCDLEGVV
B21: SEQ ID NO 433 (peptide)
peptide: KGSWQPCWFAKLGELCDLHPTS
B22: SEQ ID NO 434 (peptide)
peptide: QTWYLPCWMAKLGELCDLGERD
B23: SEQ ID NO 105 (peptide)
peptide: WGRKEQWLPCWKAQLGELCDLE
B24: SEQ ID NO 435 (peptide)
peptide: EPRWYPCWMAQMGELCDMEMSD
B25: SEQ ID NO 436 (peptide)
peptide: WGGRYWCWMAKLGDLCDLEDEW
B26: SEQ ID NO 437 (peptide)
peptide: WWPCWIAQVGELCDLDGPGRPT
modifications: disulfide 4-13 (inferred)
B27: SEQ ID NO 438 (peptide)
peptide: RLVYDCLFAQVGDLCEVIS
B28: SEQ ID NO 439 (peptide)
peptide: WRILWMQQCWRSHVVNQCAL
modifications: not fully specified (bridges); cysteine pairing not given here
B29: SEQ ID NO 440 (peptide)
peptide: WYPCWIAQVGELCDLDEVSHGR
B30: SEQ ID NO 441 (peptide)
peptide: TGEWWPCWVAEVGELCDLERGP
modifications: not fully specified (bridges); cysteine pairing not given here
B31: SEQ ID NO 442 (peptide)
peptide: ARTQGWYDCLFAQVGELCDL
B32: SEQ ID NO 443 (peptide)
peptide: FHPCWRALLGELCDLETALGPS
B33: SEQ ID NO 444 (peptide)
peptide: LQIRKLWACRIDLVGPFCLL
B34: SEQ ID NO 106 (peptide)
peptide: VPRANAWHPCWMAQLGELCDLE
B35: SEQ ID NO 445 (peptide)
peptide: AEYSGRYDCYIAKVGELCDI
B36: SEQ ID NO 446 (peptide)
peptide: SWRFLWQDCGRAHVGELCDL
B37: SEQ ID NO 447 (peptide)
peptide: NRWWHPCWMARVGELCDLEPDA
B38: SEQ ID NO 448 (peptide)
peptide: WWPCWVAKLGELCDLEGDASRV
B39: SEQ ID NO 449 (peptide)
peptide: WYPCEFAQLGELCDLLPFPYPA
B40: SEQ ID NO 450 (peptide)
peptide: SYMHDCFMAQVGDLCDRFIS
B41: SEQ ID NO 497 (peptide)
peptide: CYMHDCFMAQVGDLCDRFIS
B42: SEQ ID NO 451 (peptide)
peptide: WWPCWIAQVGELCDLEEESRES
B43: SEQ ID NO 452 (peptide)
peptide: KWAWNPCYIARLGELCDLVEPE
B44: SEQ ID NO 453 (peptide)
peptide: WWPCWIADLGELCDLEGPPRGR
B45: SEQ ID NO 454 (peptide)
peptide: PTLITWYDCLFAEVGELCDM
B46: SEQ ID NO 107 (peptide)
peptide: GRQQKGWYPCWLAQLGELCDME
B47: SEQ ID NO 455 (peptide)
peptide: EISNWFLDCMFADVGDLCDL
B48: SEQ ID NO 456 (peptide)
peptide: AQVWYPCWLAKVGELCDLDQWN
B49: SEQ ID NO 457 (peptide)
peptide: FGGKMDWYPCWIANLGELCDLK
B50: SEQ ID NO 458 (peptide)
peptide: WFPCWMAKVGDLCDVDEHQDPS
B51: SEQ ID NO 459 (peptide)
peptide: MGDSSSWFPCWMAQLGELCDME
B52: SEQ ID NO 460 (peptide)
peptide: MFRYYPCWIASIGELCDLEWGV
B53: SEQ ID NO 461 (peptide)
peptide: ERRWYPCWLASVGELCDLDMGD
B54: SEQ ID NO 463 (peptide)
peptide: RWDYWPCYIAQVGELCDLEVYE
B55: SEQ ID NO 464 (peptide)
peptide: SLAHRSWYPCWLAQVGELCDLD
B56: SEQ ID NO 81 (peptide)
peptide: WYPCWMALLGELCDQE
B57: SEQ ID NO 108 (peptide)
peptide: WLNRHLFNPCWMARLGELCDLE
B58: SEQ ID NO 465 (peptide)
peptide: QNASKGWYPCWIAHVGELCDWD
B59: SEQ ID NO 466 (peptide)
peptide: HRWYPCWLAHLGELCDLDPMS
B60: SEQ ID NO 467 (peptide)
peptide: FYPCWIAFVGELCDLE
B61: SEQ ID NO 468 (peptide)
peptide: EGHWYPCWIAQLGELCDLDW
B62: SEQ ID NO 469 (peptide)
peptide: WTGWSAFYPCSIANLGELCDLD
B63: SEQ ID NO 470 (peptide)
peptide: WEKLQNWYPCWIAQMGELCDLE
modifications: not fully specified (bridges); cysteine pairing not given here
B64: SEQ ID NO 471 (peptide)
peptide: TNGVLDWWPCWMAQVGELCDLD
modifications: not fully specified (bridges); cysteine pairing not given here

Each binder was assayed against T1, hu-IL-2Rβ subunit (assay: phage ELISA competition assay).
Binder B1 has an IC50 of under 100 µM. B2 gave an IC50 of under 100 µM. B3 gave an IC50 of under 100 µM. B4 showed an IC50 of under 100 µM. B5 showed an IC50 of under 100 µM. B6 gave an IC50 of under 100 µM. B7 was tested, and the IC50 was under 100 µM. Binder B8 has an IC50 of under 100 µM. B9 gave an IC50 of under 100 µM. B10 showed an IC50 of under 100 µM. B11 gave an IC50 of under 100 µM. Work on B12 yielded an IC50 of under 100 µM. For B13, the IC50 was under 100 µM. With B14 the IC50 was under 100 µM. B15 was tested, and the IC50 was under 100 µM. In the case of B16, the IC50 is reported as under 100 µM. For B17, the IC50 was under 100 µM. With B18 the IC50 was under 100 µM. For B19, the IC50 was under 100 µM. B20 gave an IC50 of under 100 µM. Work on B21 yielded an IC50 of under 100 µM. Binder B22 has an IC50 of under 100 µM. Binder B23 has an IC50 of under 100 µM. In the case of B24, the IC50 is reported as under 100 µM. In the case of B25, the IC50 is reported as under 100 µM. With B26 the IC50 was under 100 µM. B27 showed an IC50 of under 100 µM. With B28 the IC50 was under 100 µM. For B29, the IC50 was under 100 µM. In the case of B30, the IC50 is reported as under 100 µM. Binder B31 has an IC50 of under 100 µM. B32 gave an IC50 of under 100 µM. B33 gave an IC50 of under 100 µM. In the case of B34, the IC50 is reported as under 100 µM. In the case of B35, the IC50 is reported as under 100 µM. Work on B36 yielded an IC50 of under 100 µM. For B37, the IC50 was under 100 µM. B38 showed an IC50 of under 100 µM. B39 was tested, and the IC50 was under 100 µM. Binder B40 has an IC50 of under 100 µM. Binder B41 has an IC50 of under 100 µM. With B42 the IC50 was under 100 µM. B43 was tested, and the IC50 was under 100 µM. Work on B44 yielded an IC50 of under 100 µM. For B45, the IC50 was under 100 µM. For B46, the IC50 was under 100 µM. Binder B47 has an IC50 of under 100 µM. Binder B48 has an IC50 of under 100 µM. B49 showed an IC50 of under 100 µM. B50 showed an IC50 of under 100 µM. For B51, the IC50 was under 100 µM. For B52, the IC50 was under 100 µM. B53 was tested, and the IC50 was under 100 µM. For B54, the IC50 was under 100 µM. Work on B55 yielded an IC50 of under 100 µM. For B56, the IC50 was under 100 µM. Binder B57 has an IC50 of under 100 µM. B58 showed an IC50 of under 100 µM. B59 showed an IC50 of under 100 µM. Work on B60 yielded an IC50 of under 100 µM. B61 was tested, and the IC50 was under 100 µM. B62 gave an IC50 of under 100 µM. With B63 the IC50 was under 100 µM. Work on B64 yielded an IC50 of under 100 µM.
